The labels stand for the following.
B1: TPR t1 (parent)
chain: GACCAAUCUGCCCUCAGAGCUCGAGAACAUCUUCGGAUGCAGAGGAGGCAGGCUUCGGUGGCGCGAUAGCGCCAACGUCCUCAACCUCCAAUGCAUCCCACCACAUGAUGAUGCCUGAAGAGCCUUGGUUUUUUG

In this data set the parent is B1. The data set is described as follows: polymerase ribozyme fitness, log enrichment relative to wild type (log ratio); higher = more active; in vitro selection for triplet polymerase activity. A digest of the protocol: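 Mutant libraries of both subunits of a heterodimeric triplet polymerase ribozyme were PCR-built, transcribed, and selected once in triplicate, with frozen incubation at −7 °C and capture of gel-excised extended constructs on streptavidin beads before RT-PCR. Illumina sequencing of input and output libraries was filtered to genotypes with ≥10 input reads and ≥1 read per output. Fitness is the logarithm of genotype enrichment over wild-type enrichment, using inverse-variance-weighted replicate averages. The logarithm is base 2.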
As to A46U C53U A84C C88U, the “polymerase ribozyme fitness (log ratio)” value is -1.14.

Take G48C C49A C56U G93U: the “polymerase ribozyme fitness (log ratio)” value was -1.8.

On to G47U G120A, for which the “polymerase ribozyme fitness (log ratio)” value is -0.734.

Take G48U C72A: the “polymerase ribozyme fitness (log ratio)” value was -0.467.

In the case of G48A G63A U92C, the “polymerase ribozyme fitness (log ratio)” value was -3.14.

Turning to G48A C70U, the “polymerase ribozyme fitness (log ratio)” value was -1.3.

Take G47U U92G G117C: the “polymerase ribozyme fitness (log ratio)” value was -7.27.

Regarding G48U G107U A111C C123A, the “polymerase ribozyme fitness (log ratio)” value was -5.41.

For the variant G47C C70U, the “polymerase ribozyme fitness (log ratio)” value was -2.2.

On to G48A G52A G60A C73U C82G C88U C102G, for which the “polymerase ribozyme fitness (log ratio)” value was -5.86.

Consider G47A G48C A100U U112A, for which the “polymerase ribozyme fitness (log ratio)” value was -0.897.

Take G48A G63A C86U U116A C124U: the “polymerase ribozyme fitness (log ratio)” value was -2.18.

G47U C88G U96A U112A: the “polymerase ribozyme fitness (log ratio)” value was -6.98.

For G47A C72A C86A U96G G117U, the “polymerase ribozyme fitness (log ratio)” value is -4.69.

With G48A C53U G63U G110A, the “polymerase ribozyme fitness (log ratio)” value was -3.27.

Turning to G48C A95G U129C, the “polymerase ribozyme fitness (log ratio)” value is -1.6.

For G48U C64U G120A C123U, the “polymerase ribozyme fitness (log ratio)” value is 0.28.

In the case of G47A A75G U96C, the “polymerase ribozyme fitness (log ratio)” value is -0.307.

For G47A G52A G120A, the “polymerase ribozyme fitness (log ratio)” value was -0.716.

Turning to G47A C73A U126A, the “polymerase ribozyme fitness (log ratio)” value is -2.35.

For G47C G113U, the “polymerase ribozyme fitness (log ratio)” value is -4.11.

Regarding G47C G113C, the “polymerase ribozyme fitness (log ratio)” value was -3.85.

In the case of A46U A111C C124G U131A U132C, the “polymerase ribozyme fitness (log ratio)” value is -0.582.

With A46U U92C A100U G113C, the “polymerase ribozyme fitness (log ratio)” value is -4.52.

With G47U G51U G60C, the “polymerase ribozyme fitness (log ratio)” value was -3.98.

For G47U C49G C70U U87C A100C, the “polymerase ribozyme fitness (log ratio)” value was -3.16.

As to A46U G61A G110U G120C G122A, the “polymerase ribozyme fitness (log ratio)” value was -4.73.

Turning to A46U C62G C88A C124A, the “polymerase ribozyme fitness (log ratio)” value is -4.36.

Regarding G48C C49G C72U C97U U116G, the “polymerase ribozyme fitness (log ratio)” value was -2.86.

A46U C76G: the “polymerase ribozyme fitness (log ratio)” value is -1.01.

In the case of G47U G77A, the “polymerase ribozyme fitness (log ratio)” value was -2.15.

On to G47U G77U, for which the “polymerase ribozyme fitness (log ratio)” value is -2.07.

Take G47A C123A: the “polymerase ribozyme fitness (log ratio)” value was -0.394.

Take G47A C123U: the “polymerase ribozyme fitness (log ratio)” value was -0.261.

Regarding G48C U106G, the “polymerase ribozyme fitness (log ratio)” value was -1.5.

Take G48C U106C: the “polymerase ribozyme fitness (log ratio)” value is -1.

In the case of G48C U78C G120C C124G, the “polymerase ribozyme fitness (log ratio)” value is 0.298.

A46U C79U U96A C115U C123G U132A: the “polymerase ribozyme fitness (log ratio)” value was -2.94.

For the variant G48C C85U G117U, the “polymerase ribozyme fitness (log ratio)” value was -3.32.

In the case of G47U C72G U81A, the “polymerase ribozyme fitness (log ratio)” value was -3.46.

With G48U C88A A91C, the “polymerase ribozyme fitness (log ratio)” value is -2.5.

G48A U96A C104U U131A: the “polymerase ribozyme fitness (log ratio)” value was -1.66.

As for G47C A111G C123U, the “polymerase ribozyme fitness (log ratio)” value is -3.06.

Regarding G47A G51A G71U C98U A105U U112G, the “polymerase ribozyme fitness (log ratio)” value was -7.71.

On to A46U U131C, for which the “polymerase ribozyme fitness (log ratio)” value was -1.72.

As to G47U A100U U116A G117A U132A, the “polymerase ribozyme fitness (log ratio)” value was -5.1.

Regarding G47U G48U C79U, the “polymerase ribozyme fitness (log ratio)” value was -2.83.

As to G48A C62A C82A C85G G110C U133A, the “polymerase ribozyme fitness (log ratio)” value was -7.12.

For G48C U81A G127C, the “polymerase ribozyme fitness (log ratio)” value was -3.51.

G48C U78A: the “polymerase ribozyme fitness (log ratio)” value is -0.274.

For the variant G47U C124A U130G, the “polymerase ribozyme fitness (log ratio)” value was -0.902.

For G48U A84C C114U U116G U132A, the “polymerase ribozyme fitness (log ratio)” value was -7.04.

G47A A103C G122A: the “polymerase ribozyme fitness (log ratio)” value was -6.8.

Consider A46U A90C U133A, for which the “polymerase ribozyme fitness (log ratio)” value was -1.74.

As to A46U G47A G127C, the “polymerase ribozyme fitness (log ratio)” value was -3.12.

Consider A46U G48A, for which the “polymerase ribozyme fitness (log ratio)” value is -2.28.

C49A A91G: the “polymerase ribozyme fitness (log ratio)” value is -1.63.

Turning to G47U C76A C79A C80G C94G A100C U116G C124U U129A, the “polymerase ribozyme fitness (log ratio)” value is -5.73.

G47C C70U C89U: the “polymerase ribozyme fitness (log ratio)” value is -4.18.

On to G48A C64U C73A, for which the “polymerase ribozyme fitness (log ratio)” value was -0.705.

For A46U U59C G93A U130C, the “polymerase ribozyme fitness (log ratio)” value was -2.04.

On to A46U G63C, for which the “polymerase ribozyme fitness (log ratio)” value was -1.29.

As for G47U A50U U59C C73A U78A U133A, the “polymerase ribozyme fitness (log ratio)” value was -2.31.

On to G47C G48A C86U A90U, for which the “polymerase ribozyme fitness (log ratio)” value is -2.46.

As for G48C C49A U55C G61A A95G G110A, the “polymerase ribozyme fitness (log ratio)” value is -2.85.

On to G48U C62G A91U C123U U125A, for which the “polymerase ribozyme fitness (log ratio)” value was -5.93.

A46U C62G C88A C124A U133G: the “polymerase ribozyme fitness (log ratio)” value is -4.11.

On to G48A C115U C124U, for which the “polymerase ribozyme fitness (log ratio)” value is -1.31.

As for A46U A66G G77A, the “polymerase ribozyme fitness (log ratio)” value is -1.99.

Regarding G47U C80A G113A, the “polymerase ribozyme fitness (log ratio)” value was -6.73.

In the case of C49A C53A C86A U112G G128A, the “polymerase ribozyme fitness (log ratio)” value was -3.85.

In the case of G47C C89U C124G, the “polymerase ribozyme fitness (log ratio)” value was -0.507.

Consider A46U C115U, for which the “polymerase ribozyme fitness (log ratio)” value is -2.18.

Turning to G48C U116G, the “polymerase ribozyme fitness (log ratio)” value is -3.09.

Consider G48U C62G, for which the “polymerase ribozyme fitness (log ratio)” value was -3.39.

On to G48U C62A, for which the “polymerase ribozyme fitness (log ratio)” value was -1.81.

For the variant G48U C49G, the “polymerase ribozyme fitness (log ratio)” value is -0.587.

Regarding G47A A50U C56A G69U G77C, the “polymerase ribozyme fitness (log ratio)” value is -1.54.

Regarding G47A G120A U126A, the “polymerase ribozyme fitness (log ratio)” value is -1.73.

As to G48U U54C G71U U116C G122U, the “polymerase ribozyme fitness (log ratio)” value was -2.51.

Consider G48U A121U, for which the “polymerase ribozyme fitness (log ratio)” value amounted to 0.519.

With G47A U55A, the “polymerase ribozyme fitness (log ratio)” value was -0.45.

As to G47C G117A, the “polymerase ribozyme fitness (log ratio)” value is -2.73.

The values are drawn from the RNAGym collection of RNA variant scans (doi:10.1073/pnas.2313332121).
